Results: publication PMC12527977, “Discovery of a novel tetrapeptide as glucose homeostasis modulator with bifunctionalities of targeting DPP‐IV and microbiota” (iMeta, 2025)
Read-outs that look alike come from different tables or passages of the source. Where no end group is shown, it is not given here.

B1: FNPRG (peptide)
peptide: FNPRG
B2: VADW (peptide)
peptide: VADW
B3: WNVN (peptide)
peptide: WNVN
B4: VFTPQ (peptide)
peptide: VFTPQ
B5: FPQS (peptide)
peptide: FPQS
B6: WIAVK (peptide)
peptide: WIAVK
B7: LNAP (peptide)
peptide: LNAP
B8: YTGD (peptide)
peptide: YTGD
B9: WDSY (peptide)
peptide: WDSY
B10: YNLP (peptide)
peptide: YNLP
B11: YSYA (peptide)
peptide: YSYA
B12: YQLM (peptide)
peptide: YQLM
B13: YTPHW (peptide)
peptide: YTPHW
B14: FDGEL (peptide)
peptide: FDGEL
B15: VAMP (peptide)
peptide: VAMP
B16: PQNHA (peptide)
peptide: PQNHA
B17: FNVDSE (peptide)
peptide: FNVDSE

Columns and labels:
[1] = target: DPP-IV (Homo sapiens, UniProt P27487); test: DPP-IV inhibitory activity of peptides (DPP-IV-Glo Protease Assay Kit); format: biochemical; parameters: purchased QiZheng Biotech (Shanghai, China) IBDPP0901; conditions: for DPP-IV inhibitory activity: DPP-IV-Glo Protease Assay Kit, control = 0, in % (unit assumed); for DPP-IV inhibitory activity: test concentration or dose not given here
Sequence of DPP-IV (P27487 whole entry): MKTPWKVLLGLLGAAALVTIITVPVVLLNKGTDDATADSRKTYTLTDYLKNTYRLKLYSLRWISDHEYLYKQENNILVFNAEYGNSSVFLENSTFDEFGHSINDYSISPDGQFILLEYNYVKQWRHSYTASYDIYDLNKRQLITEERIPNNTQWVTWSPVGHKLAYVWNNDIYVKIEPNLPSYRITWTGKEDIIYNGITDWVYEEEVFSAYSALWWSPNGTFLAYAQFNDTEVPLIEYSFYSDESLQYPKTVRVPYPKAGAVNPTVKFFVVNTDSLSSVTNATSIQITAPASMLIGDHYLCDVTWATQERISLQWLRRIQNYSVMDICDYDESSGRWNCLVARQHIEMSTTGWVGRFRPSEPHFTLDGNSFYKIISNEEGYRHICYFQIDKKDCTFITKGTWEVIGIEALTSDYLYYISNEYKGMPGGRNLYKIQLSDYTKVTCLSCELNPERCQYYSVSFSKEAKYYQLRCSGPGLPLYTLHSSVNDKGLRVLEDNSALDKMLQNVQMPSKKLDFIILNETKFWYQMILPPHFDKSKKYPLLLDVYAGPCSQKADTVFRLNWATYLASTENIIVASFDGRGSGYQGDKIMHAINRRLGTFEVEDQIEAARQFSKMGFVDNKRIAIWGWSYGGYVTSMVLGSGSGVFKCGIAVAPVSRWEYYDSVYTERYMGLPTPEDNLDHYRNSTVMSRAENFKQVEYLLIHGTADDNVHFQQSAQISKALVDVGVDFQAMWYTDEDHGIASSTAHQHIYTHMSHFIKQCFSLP

[2] = target: dipeptidyl peptidase IV (UniProt P27487)
Sequence of dipeptidyl peptidase IV (P27487 41-765): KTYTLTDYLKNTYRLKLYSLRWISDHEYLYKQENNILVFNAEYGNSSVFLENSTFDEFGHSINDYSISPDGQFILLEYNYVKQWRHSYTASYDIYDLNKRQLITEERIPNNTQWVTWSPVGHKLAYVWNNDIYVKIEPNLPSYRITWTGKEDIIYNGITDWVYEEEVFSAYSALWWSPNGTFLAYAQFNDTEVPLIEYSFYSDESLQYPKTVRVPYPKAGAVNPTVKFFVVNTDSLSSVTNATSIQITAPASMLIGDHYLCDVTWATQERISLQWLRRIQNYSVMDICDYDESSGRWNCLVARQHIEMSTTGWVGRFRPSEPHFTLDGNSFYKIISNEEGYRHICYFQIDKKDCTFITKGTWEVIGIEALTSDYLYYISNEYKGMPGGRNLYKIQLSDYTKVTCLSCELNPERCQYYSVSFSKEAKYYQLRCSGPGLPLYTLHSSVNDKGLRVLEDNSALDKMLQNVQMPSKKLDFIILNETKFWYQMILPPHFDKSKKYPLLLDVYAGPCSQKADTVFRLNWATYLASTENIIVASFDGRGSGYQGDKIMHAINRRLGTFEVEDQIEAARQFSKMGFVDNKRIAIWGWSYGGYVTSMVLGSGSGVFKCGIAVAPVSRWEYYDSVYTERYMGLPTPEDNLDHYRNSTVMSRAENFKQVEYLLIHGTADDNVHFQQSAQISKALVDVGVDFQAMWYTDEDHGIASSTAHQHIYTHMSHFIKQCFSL

Molecule	IC50 of inhibition of DPP-IV activity in vitro [2] [µM]	further results
WIAVK [WIAVK]		IC50 [1]: 600 µM; DPP-IV inhibitory activity ([1]; replicate 1): 55.8181; DPP-IV inhibitory activity ([1]; replicate 2): 53.6066; DPP-IV inhibitory activity ([1]; replicate 3): 51.0205
WLE (peptide)	2400	
YNL (peptide)	140	
YQL (peptide)	280	
YTPHW [YTPHW]		DPP-IV inhibitory activity ([1]; replicate 1): 18.6094; DPP-IV inhibitory activity ([1]; replicate 2): 9.79; DPP-IV inhibitory activity ([1]; replicate 3): 21.0526; IC50 ([1]; Table S3, read-out: IC50): 7110 µM
B1	40500	
B2	350	
B3	150	
B4	18500	
B5	350	
B6	600	
B7	590	
B8	320	
B9	630	
B10	510	
B11	410	
B12	650	
B13	7110	
B14	45100	
B15	1	
B16	24600	
B17	84000	
